This experiment concerns the target recombinant human TNF-alpha (Life Technologies) (human) (UniProt P01375). Description: SPR (Biacore), Etanercept amine-coupled to chip, TNF-alpha as analyte. In general terms: In SPR one partner is held on a chip, and binding of the other changes the refractive index at the surface.

Sequence of recombinant human TNF-alpha (Life Technologies) (human) (P01375 77-233 limits assumed): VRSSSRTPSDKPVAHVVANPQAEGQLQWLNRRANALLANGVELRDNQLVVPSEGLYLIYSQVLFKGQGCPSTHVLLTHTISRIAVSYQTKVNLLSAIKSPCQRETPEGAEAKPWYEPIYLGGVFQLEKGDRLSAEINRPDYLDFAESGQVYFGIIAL

For orientation: Kd means a measure of binding affinity in units of concentration. “Etanercept (soluble TNF receptor, product name Enbrel, Takeda Pharmaceutical Company) (Fc fusion)”: the equilibrium dissociation constant (Kd) is 0.313 nM.

Source of the values: patent US20180057553A1, “CONJUGATE AND USE THEREOF” (The University of Tokyo, priority 2015, published 2018).
